The results in this text go back to the Human Domainome abundance scans (Beltran et al. 2025).

± gives the uncertainty stated by the source.

B1: Homeobox protein cut-like 2, residues 895 to 963; numbered along this chain, O14529 (parent)
chain: EVDTLELTRQVKEKLAKNGICQRIFGEKVLGLSQGSVSDMLSRPKPWSKLTQKGREPFIRMQLWLSDQL

In the data set the parent is B1. Briefly: abundance fitness (aPCA) (normalised: wild type 0, dead -1); higher = more abundant; growth selection in yeast, the domain comes from the species named. The note with it: Homo sapiens.
For the variant EVDTLELTRQVKEKLAKNGICQRIFGEKVLGLSQGSVSDMFSRPKPWSKLTQKGREPFIRMQLWLSDQL [L41F], the abundance fitness is -0.088 ± 0.046.

As for EVDTLELTRQVKEKLAKNGICQRIFGEKVLGLSQGSVSDMDSRPKPWSKLTQKGREPFIRMQLWLSDQL [L41D], the abundance fitness is -0.353 ± 0.18.

For the variant EVDTLELTRQVKEKLAKNGICQRIFGEKVLGLSQGSVSDMYSRPKPWSKLTQKGREPFIRMQLWLSDQL [L41Y], the abundance fitness is -0.418 ± 0.053.

In the case of EVDTLELTRQVKEKLAKNGICQRIFGEKVLGLSQGSVSDMQSRPKPWSKLTQKGREPFIRMQLWLSDQL [L41Q], the abundance fitness is -0.303 ± 0.037.

For EVDTLELTRQVKEKLAKNGICQRIFGEKVLGLSQGSVSDMWSRPKPWSKLTQKGREPFIRMQLWLSDQL [L41W], the abundance fitness is -0.25 ± 0.055.

On to EVDTLELTRQVKEKLAKNGICQRIFGEKVLGLSQGSVSDMASRPKPWSKLTQKGREPFIRMQLWLSDQL [L41A], for which the abundance fitness was -0.223 ± 0.079.

On to EVDTLELTRQVKEKLAKNGICQRIFGEKVLGLSQGSVSDMISRPKPWSKLTQKGREPFIRMQLWLSDQL [L41I], for which the abundance fitness is -0.315 ± 0.056.

As for EVDTLELTRQVKEKLAKNGICQRIFGEKVLGLSQGSVSDMRSRPKPWSKLTQKGREPFIRMQLWLSDQL [L41R], the abundance fitness was -0.226 ± 0.051.

For EVDTLELTRQVKEKLAKNGICQRIFGEKVLGLSQGSVSDMMSRPKPWSKLTQKGREPFIRMQLWLSDQL [L41M], the abundance fitness is -0.214 ± 0.032.

EVDTLELTRQVKEKLAKNGICQRIFGEKVLGLSQGSVSDMPSRPKPWSKLTQKGREPFIRMQLWLSDQL [L41P]: the abundance fitness was -0.257 ± 0.032.

Turning to EVDTLELTRQVKEKLAKNGICQRIFGEKVLGLSQGSVSDMGSRPKPWSKLTQKGREPFIRMQLWLSDQL [L41G], the abundance fitness was -0.107 ± 0.11.

For EVDTLELTRQVKEKLAKNGICQRIFGEKVLGLSQGSVSDMHSRPKPWSKLTQKGREPFIRMQLWLSDQL [L41H], the abundance fitness was -0.37 ± 0.05.

On to EVDTLELTRQVKEKLAKNGICQRIFGEKVLGLSQGSVSDMCSRPKPWSKLTQKGREPFIRMQLWLSDQL [L41C], for which the abundance fitness was -0.452 ± 0.13.

Take EVDTLELTRQVKEKLAKNGICQRIFGEKVLGLSQGSVSDMSSRPKPWSKLTQKGREPFIRMQLWLSDQL [L41S]: the abundance fitness is -0.234 ± 0.032.

As to EVDTLELTRQVKEKLAKNGICQRIFGEKVLGLSQGSVSDMNSRPKPWSKLTQKGREPFIRMQLWLSDQL [L41N], the abundance fitness was -0.481 ± 0.067.

For EVDTLELTRQVKEKLAKNGICQRIFGEKVLGLSQGSVSDMESRPKPWSKLTQKGREPFIRMQLWLSDQL [L41E], the abundance fitness was -0.41 ± 0.11.

Turning to EVDTLELTRQVKEKLAKNGICQRIFGEKVLGLSQGSVSDMKSRPKPWSKLTQKGREPFIRMQLWLSDQL [L41K], the abundance fitness is -0.193 ± 0.032.

Consider EVDTLELTRQVKEKLAKNGICQRIFGEKVLGLSQGSVSDMTSRPKPWSKLTQKGREPFIRMQLWLSDQL [L41T], for which the abundance fitness is -0.505 ± 0.035.

On to EVDTLELTRQVKEKLAKNGICQRIFGEKVLGLSQGSVSDMVSRPKPWSKLTQKGREPFIRMQLWLSDQL [L41V], for which the abundance fitness was -0.518 ± 0.092.

With EVDTLELTRQVKEKLAKNGICQRIFGEKVLGLSQGSVSDMLKRPKPWSKLTQKGREPFIRMQLWLSDQL [S42K], the abundance fitness is 0.009 ± 0.044.

Regarding EVDTLELTRQVKEKLAKNGICQRIFGEKVLGLSQGSVSDMLDRPKPWSKLTQKGREPFIRMQLWLSDQL [S42D], the abundance fitness was 0.039 ± 0.07.

EVDTLELTRQVKEKLAKNGICQRIFGEKVLGLSQGSVSDMLQRPKPWSKLTQKGREPFIRMQLWLSDQL [S42Q]: the abundance fitness was -0.092 ± 0.046.

As for EVDTLELTRQVKEKLAKNGICQRIFGEKVLGLSQGSVSDMLNRPKPWSKLTQKGREPFIRMQLWLSDQL [S42N], the abundance fitness was -0.095 ± 0.057.

EVDTLELTRQVKEKLAKNGICQRIFGEKVLGLSQGSVSDMLERPKPWSKLTQKGREPFIRMQLWLSDQL [S42E]: the abundance fitness was 0.059 ± 0.095.

Turning to EVDTLELTRQVKEKLAKNGICQRIFGEKVLGLSQGSVSDMLCRPKPWSKLTQKGREPFIRMQLWLSDQL [S42C], the abundance fitness was -0.004 ± 0.092.

For EVDTLELTRQVKEKLAKNGICQRIFGEKVLGLSQGSVSDMLARPKPWSKLTQKGREPFIRMQLWLSDQL [S42A], the abundance fitness was -0.014 ± 0.11.

Turning to EVDTLELTRQVKEKLAKNGICQRIFGEKVLGLSQGSVSDMLFRPKPWSKLTQKGREPFIRMQLWLSDQL [S42F], the abundance fitness was -0.167 ± 0.031.

With EVDTLELTRQVKEKLAKNGICQRIFGEKVLGLSQGSVSDMLPRPKPWSKLTQKGREPFIRMQLWLSDQL [S42P], the abundance fitness was -0.159 ± 0.05.

For the variant EVDTLELTRQVKEKLAKNGICQRIFGEKVLGLSQGSVSDMLMRPKPWSKLTQKGREPFIRMQLWLSDQL [S42M], the abundance fitness is 0.012 ± 0.037.

Regarding EVDTLELTRQVKEKLAKNGICQRIFGEKVLGLSQGSVSDMLTRPKPWSKLTQKGREPFIRMQLWLSDQL [S42T], the abundance fitness is -0.169 ± 0.089.

Take EVDTLELTRQVKEKLAKNGICQRIFGEKVLGLSQGSVSDMLRRPKPWSKLTQKGREPFIRMQLWLSDQL [S42R]: the abundance fitness was -0.054 ± 0.1.

Take EVDTLELTRQVKEKLAKNGICQRIFGEKVLGLSQGSVSDMLHRPKPWSKLTQKGREPFIRMQLWLSDQL [S42H]: the abundance fitness is -0.007 ± 0.045.

Turning to EVDTLELTRQVKEKLAKNGICQRIFGEKVLGLSQGSVSDMLLRPKPWSKLTQKGREPFIRMQLWLSDQL [S42L], the abundance fitness is -0.086 ± 0.026.

Take EVDTLELTRQVKEKLAKNGICQRIFGEKVLGLSQGSVSDMLGRPKPWSKLTQKGREPFIRMQLWLSDQL [S42G]: the abundance fitness is -0.272 ± 0.28.

Regarding EVDTLELTRQVKEKLAKNGICQRIFGEKVLGLSQGSVHDMLSRPKPWSKLTQKGREPFIRMQLWLSDQL [S38H], the abundance fitness came to 0.005 ± 0.03.

Regarding EVDTLELTRQVKEKLAKNGICQRIFGEKVLGLSQGSVYDMLSRPKPWSKLTQKGREPFIRMQLWLSDQL [S38Y], the abundance fitness is -0.008 ± 0.32.

For the variant EVDTLELTRQVKEKLAKNGICQRIFGEKVLGLSQGSVRDMLSRPKPWSKLTQKGREPFIRMQLWLSDQL [S38R], the abundance fitness stood at 0.024 ± 0.028.

As to EVDTLELTRQVKEKLAKNGICQRIFGEKVLGLSQGSVNDMLSRPKPWSKLTQKGREPFIRMQLWLSDQL [S38N], the abundance fitness was 0.012 ± 0.027.

Take EVDTLELTRQVKEKLAKNGICQRIFGEKVLGLSQGSVTDMLSRPKPWSKLTQKGREPFIRMQLWLSDQL [S38T]: the abundance fitness came out at 0.006 ± 0.026.
